Several values for one entry are separate records, joined by “and”; a condition that tells them apart may be missing. Equal values may be shown once.
Assays:
[1] = system: full-thickness defect of rabbit knee articular cartilage; assay: Full-thickness cartilage defect of rabbit knee joint, intra-articular rhMK; type: in vivo, New Zealand white rabbits; settings: rabbit knee full-thickness cartilage damage model, 18 samples, 13 recovered; no recovery in saline control sides, P<0.01
Method: Method. 2-month-old male New Zealand white rabbits (2.0˜2.5 kg weight) were anesthetized with 3% pentobarbital sodium (30 mg/kg) by ear vein injection. After anesthesia, prepare the skin on both sides of the knees were prepared for sterilization. With conventional surgical sterilization and under sterile conditions, the inner side of knees was cut to expose the femoral condyle surface. The full-thickness cartilage injury was made on the femoral condyle surface for both sides of the rabbit knees using an electrical drill. The cartilage hole was 3 mm in diameter and 4 mm in depth. The wound was closed with 4-0 lines. 400,000 units penicillin was injected daily for one week to prevent the wound site infection. 24 hours after surgery, normal saline or rhMK was injected into the knee articular cavity. The injection volume was 0.5 ml, three times a week for 2 weeks. rhMK was injected into one side of the rabbit knee joint, the other side was injected with saline as control. The rabbits were kept in cages and moved freely without fixation of the injured knees. After 2, 4, 6 and 12 weeks, rabbits were sacrificed. Cartilage tissues of the knee joint were removed for routine biopsy. The tissue sections were prepared for H&E, and fast green—Safranin O staining. The histological observation and evaluation were conducted under microscope.

[2] = system: cartilage of normal mouse (knee-joint articular, ear elastic, tracheal, intervertebral disc); assay: rhMK effect on cartilage thickness of normal mice (subcutaneous injection, histology); type: in vivo, C57BL/6J mice; settings: for Thickness of cartilage, Ear elastic cartilage / Thickness of cartilage, Femoral condyle / Thickness of cartilage, Intervertbral disc (T2-3): normal mouse, mean ± SD
Method: Method. 8-weeks-old male C57BL/6J mice were injected subcutaneously with recombinant human MK (rhMK) or control saline. The injection volume was 0.5 ml, given daily for a week. The mice were grouped (3 animals per group): Saline (NS) group, rhMK groups injected with various dosages at 10, 33, 100, 300, 900 μg/kg. Rats were injected with saline or rhMK (175 μg/kg) daily for a week. Rabbits were injected with saline or rhMK (92.5 μg/kg) daily for two week. Histological observation and evaluation. The knee joint tissues of all mice and rats were fixed in 10% (v/v) formalin for 1 day, the tissues of rabbits were fixed for 2 days. The fixed tissues were subjected to demineralization in liquid (7% AlCl3.6H2O, 5% methanoic acid, 8.5% HCl) 4 days for mouse and rats issues, and 10 days for rabbit tissues. The demineralized tissues were subjected to dehydration by gradient ethanol, and treated for transparency by xylene, and embedded in wax. Tissue sections were prepared by the paraffin slicing machine (Laica), and stained with hemotoxylin/eosin or Safranine O/fast green staining. Slides were observed under microscope and analyzed. The thickness of cartilage tissues were measured by the vernier caliper on microscope. Three tissue sections from each sample were measured and analyzed statisticaly. The distance between surface of cartilage to subchondral tide line was measured at ½ position of femoral condyle to denote the thickness of knee-joint cartilage. The thickness of cartilage at central part of ears was measured to denote the thickness of ear elastic cartilage. The distance between out surface of annulus to nucleus of the intervertebral disc was measured to denote the thickness of thoracic intervertebral disc (T2-3). The injection dose of rhMK: mice was injected subcutaneously 300 μg/kg daily for a week; rats were injected 175 μg/kg daily for a week; and New Zealand rabbits was injected 92.5 μg/kg daily for two weeks. Three animals per group were analyzed.

[3] = system: rat auricular chondrocyte; assay: Cell expansion in passaged monolayer culture; type: cell-based
Method: (§1) 1. Preparation of primary chondrocyte. The 8-week-old male SD rats were sacrificed under sterile conditions. The articular cartilage, fibrocartilage and elastic cartilage tissue were isolated from the femur joints, meniscus and outer ear respectively using a scalpel. The isolated cartilage were cut into small pieces, washed twice with phosphate buffered saline (PBS), and digested with trypsin (0.25% (w/v) trypsin/0.02% (w/v) EDTA) at 37° C. for 30 min. The articular cartilage and elastic cartilage were further digested with 0.2% type II collagenase for additional 16 h, and the fibrocartilage were further digested with 0.15% type I collagenase for additional 16 h. After digestion, three chondrocytes were passed through 100 μm filter (Falcon, USA) into 15 ml centrifuge tubes, centrifuged at room temperature at 2000 rpm for 5 min. Cells were resuspended in DMEM containing 10% FBS (fetal bovine serum). Trypan blue staining of the freshly isolated cells was used to monitor the percentage of live cells under the microscope. When the number of live cells is more than 95%, it was used for subsequent experiments.
(§2) 3. Culture of primary chondrocytes in monolayer. Three types of primary chondrocytes were suspended in DMEM medium containing 10% FBS, adjusted to 5×10^4 cells/ml, added to 6-well plate with 2 ml medium/well, and incubated in 37° C. at 5% CO2. Experiment was divided into two groups: control group and experimental group (with 3 μg/ml rhMK). Cell medium was changed every two days. When the cells grew to the confluence of 85% to 90%, the cells were collected by trypsin digestion, washed in PBS by centrifugation. The cells were resuspended in DMEM containing 10% FBS. Cell survival was monitored by trypan blue staining. Part of the cells were used for cell passage; some were for RNA extraction; some were cytospined onto a glass slide for later immunohistochemical staining and the slides were stored at −80° C. Primary cells or passage 0 (P0) were cultured for 7 days. The newly passaged cells were further cultured in a 6-well plate for 3 days which was then collected by trypsin-digestion and marked as passage P1. The cell amplification at each passage=total number of cells at output/total number of cells at initial input.

rat fibrochondrocyte = assay: Cell expansion in passaged monolayer culture; type: cell-based
Method: as §1, §2

[4] = system: rat articular chondrocyte; assay: Cell expansion in passaged monolayer culture; type: cell-based
Method: as §1, §2

[5] = Mouse, rhMK 300 μg/kg s.c. daily for a week
[6] = rhMK 10 μg/kg s.c. daily for one week
[7] = rhMK 33 μg/kg s.c. daily for one week
[8] = rhMK 100 μg/kg s.c. daily for one week
[9] = rhMK 300 μg/kg s.c. daily for one week
[10] = rhMK 900 μg/kg s.c. daily for one week
[11] = P0, rhMK 3 μg/ml versus no rhMK
[12] = P1, rhMK 3 μg/ml versus no rhMK
[13] = P2, rhMK 3 μg/ml versus no rhMK

B1: rhMK: recombinant human midkine mature protein (SEQ ID NO.1) expressed in E. coli and purified by ion-exchange chromatography (protein, listed as Homo sapiens)
chain: MKKKDKVKKGGPGSECAEWAWGPCTPSSKDCGVGFREGTCGAQTQRIRCRVPCNWKKEFGADCKYKFENWGACDGGTGTKVRQGTLKKARYNAQCQETIRVTKPCTPKTKAKAKAKKGKGKD
[1]
  rate of recovery in the rhMK treated side: 72.2%
[2]; [5]
  Cartilage thickness, Ear: 58.5 ± 19.6 µm
  Cartilage thickness, Femoral condyle: 195 ± 9.9 µm
  Cartilage thickness, Intervertbral disc (T2-3): 201 ± 17.2 µm
  Cartilage thickness, Trachea: 114 ± 18 µm
[2]; mice, s.c. daily for a week
  effective dose that promoted the growth of all three categories of cartilages: 300 µg/kg/day
  minimum effective dose, articular cartilage and ear elastic cartilage: 10 µg/kg/day
[2]; [6]
  Thickness of cartilage, Ear elastic cartilage: 47.6 ± 4.7 μm
  Thickness of cartilage, Femoral condyle: 152 ± 2.7 μm
  Thickness of cartilage, Intervertbral disc (T2-3): 193.8 ± 25.2 μm
[2]; [7]
  Thickness of cartilage, Ear elastic cartilage: 46.2 ± 5.6 μm
  Thickness of cartilage, Femoral condyle: 156.4 ± 8.1 μm
  Thickness of cartilage, Intervertbral disc (T2-3): 206.2 ± 29.4 μm
[2]; [8]
  Thickness of cartilage, Ear elastic cartilage: 48.9 ± 5.5 μm
  Thickness of cartilage, Femoral condyle: 172.4 ± 11.1 μm
  Thickness of cartilage, Intervertbral disc (T2-3): 193.8 ± 3.1 μm
[2]; [9]
  Thickness of cartilage, Ear elastic cartilage: 58.5 ± 19.6 μm
  Thickness of cartilage, Femoral condyle: 195.3 ± 9.9 μm
  Thickness of cartilage, Intervertbral disc (T2-3): 200.7 ± 17.2 μm
[2]; [10]
  Thickness of cartilage, Ear elastic cartilage: 51.6 ± 5.6 μm
  Thickness of cartilage, Femoral condyle: 200.0 ± 7.0 μm
  Thickness of cartilage, Intervertbral disc (T2-3): 217.1 ± 6.0 μm
[3]; P0, rhMK 3 μg/ml
  Cell expansion (in fold): 7.9 ± 0.1 fold
[3]; [11]
  Proliferation rate (%): 65%
[3]; P1, rhMK 3 μg/ml
  Cell expansion (in fold): 16.1 ± 1.1 fold
[3]; [12]
  Proliferation rate (%): 66%
[3]; P2, rhMK 3 μg/ml
  Cell expansion (in fold): 8.2 ± 1.0 fold
[3]; [13]
  Proliferation rate (%): 55%
Rat fibrochondrocyte; P0, rhMK 3 μg/ml
  Cell expansion (in fold): 5.3 ± 1.3 fold
Rat fibrochondrocyte; [11]
  Proliferation rate (%): 112% and 110%
Rat fibrochondrocyte; P1, rhMK 3 μg/ml
  Cell expansion (in fold): 28.1 ± 3.4 fold
Rat fibrochondrocyte; [12]
  Proliferation rate (%): 51%
Rat fibrochondrocyte; P2, rhMK 3 μg/ml
  Cell expansion (in fold): 20.9 ± 0.9 fold
Rat fibrochondrocyte; [13]
  Proliferation rate (%): 35%
[4]; P0, rhMK 3 μg/ml
  Cell expansion (in fold): 13.5 ± 1.2 fold
[4]; [11]
  Proliferation rate (%): 112%
[4]; P1, rhMK 3 μg/ml
  Cell expansion (in fold): 12.0 ± 1.4 fold
[4]; [12]
  Proliferation rate (%): 74%
[4]; P2, rhMK 3 μg/ml
  Cell expansion (in fold): 11.5 ± 0.5 fold
[4]; [13]
  Proliferation rate (%): 48%

From patent publication US9283300B2, “Use of midkine protein and the protein-containing medical device” (GENERAL REGENERATIVES, LTD, priority 2009, dated 2016)
